Reference: publication PMC10786891, “Massively parallel profiling of RNA-targeting CRISPR-Cas13d”
Substitutions are numbered along the chain they refer to. Names and notes keep the numbering of the source.

T1: EsCas13d, nuclease-dead (Eubacterium siraeum, UniProt B0MS50, R295A;H300A;R849A;H854A)
T1 sequence: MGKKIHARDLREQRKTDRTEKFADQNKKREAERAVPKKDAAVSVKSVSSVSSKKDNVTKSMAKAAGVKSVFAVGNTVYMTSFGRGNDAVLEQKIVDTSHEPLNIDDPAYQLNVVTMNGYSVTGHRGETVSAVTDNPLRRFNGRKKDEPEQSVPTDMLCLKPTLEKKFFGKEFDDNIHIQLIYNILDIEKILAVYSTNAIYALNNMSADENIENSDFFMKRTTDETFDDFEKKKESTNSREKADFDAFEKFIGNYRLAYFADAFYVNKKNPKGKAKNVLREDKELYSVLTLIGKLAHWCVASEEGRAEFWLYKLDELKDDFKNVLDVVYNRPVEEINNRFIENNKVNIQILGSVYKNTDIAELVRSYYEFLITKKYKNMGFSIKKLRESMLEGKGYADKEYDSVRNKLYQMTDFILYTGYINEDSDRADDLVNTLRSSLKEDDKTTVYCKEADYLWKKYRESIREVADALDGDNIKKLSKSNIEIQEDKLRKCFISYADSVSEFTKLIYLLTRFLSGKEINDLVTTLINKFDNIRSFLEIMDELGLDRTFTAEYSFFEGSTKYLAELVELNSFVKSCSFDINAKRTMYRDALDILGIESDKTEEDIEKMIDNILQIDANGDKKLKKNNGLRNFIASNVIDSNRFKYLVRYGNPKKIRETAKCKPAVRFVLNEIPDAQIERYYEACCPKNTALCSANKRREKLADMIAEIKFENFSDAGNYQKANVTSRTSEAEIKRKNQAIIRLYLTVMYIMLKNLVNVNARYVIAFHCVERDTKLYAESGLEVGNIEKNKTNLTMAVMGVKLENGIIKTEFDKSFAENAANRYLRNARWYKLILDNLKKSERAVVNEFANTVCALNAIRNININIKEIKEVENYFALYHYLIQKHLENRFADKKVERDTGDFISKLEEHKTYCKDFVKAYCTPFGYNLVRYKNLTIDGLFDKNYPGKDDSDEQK

B1: target 2 MT 5'PFS GGG 3'PFS UCG (mixed)
RNA 1: CACCCGUGCAAAAUUGCAGGGGUCUAAAACCUUCUCCAAAUUGUUUCAUCCU
RNA 2: GGGAAUGGAUCCACAUCUACGAAUUCGGGAGGAUGAAACAAUUUGGAGAAGUCGAGAUCGGAAGAGCACACGU
B2: target 2 MT 5'PFS ACU 3'PFS UUG (mixed)
RNA 1: B1 RNA 1
RNA 2: B1 RNA 2 with G27A, G28C, G29U, C53U
B3: target 2 MT 5'PFS AGC 3'PFS UCA (mixed)
RNA 1: B1 RNA 1
RNA 2: B1 RNA 2 with G27A, G29C, G54A
B4: target 2 MT 5'PFS UUC 3'PFS CAA (mixed)
RNA 1: B1 RNA 1
RNA 2: B1 RNA 2 with G27U, G28U, G29C, U52C, C53A, G54A
B5: target 2 MT 5'PFS CUC 3'PFS UGU (mixed)
RNA 1: B1 RNA 1
RNA 2: B1 RNA 2 with G27C, G28U, G29C, C53G, G54U
B6: target 2 MT 5'PFS CAU 3'PFS AUA (mixed)
RNA 1: B1 RNA 1
RNA 2: B1 RNA 2 with G27C, G28A, G29U, U52A, C53U, G54A
B7: target 2 MT 5'PFS CAU 3'PFS AUG (mixed)
RNA 1: B1 RNA 1
RNA 2: B1 RNA 2 with G27C, G28A, G29U, U52A, C53U
B8: target 2 MT 5'PFS UGC 3'PFS AGA (mixed)
RNA 1: B1 RNA 1
RNA 2: B1 RNA 2 with G27U, G29C, U52A, C53G, G54A
B9: target 2 MT 5'PFS ACU 3'PFS UUU (mixed)
RNA 1: B1 RNA 1
RNA 2: B1 RNA 2 with G27A, G28C, G29U, C53U, G54U
B10: target 2 MT 5'PFS CUU 3'PFS CAU (mixed)
RNA 1: B1 RNA 1
RNA 2: B1 RNA 2 with G27C, G28U, G29U, U52C, C53A, G54U
B11: target 2 MT 5'PFS ACU 3'PFS UUC (mixed)
RNA 1: B1 RNA 1
RNA 2: B1 RNA 2 with G27A, G28C, G29U, C53U, G54C
B12: target 2 MT 5'PFS AGC 3'PFS UCG (mixed)
RNA 1: B1 RNA 1
RNA 2: B1 RNA 2 with G27A, G29C
B13: target 2 MT 5'PFS CAG 3'PFS ACA (mixed)
RNA 1: B1 RNA 1
RNA 2: B1 RNA 2 with G27C, G28A, U52A, G54A
B14: target 2 MT 5'PFS ACU 3'PFS UUA (mixed)
RNA 1: B1 RNA 1
RNA 2: B1 RNA 2 with G27A, G28C, G29U, C53U, G54A
B15: target 2 MT 5'PFS CAU 3'PFS AUC (mixed)
RNA 1: B1 RNA 1
RNA 2: B1 RNA 2 with G27C, G28A, G29U, U52A, C53U, G54C
B16: target 2 MT 5'PFS CUU 3'PFS CAG (mixed)
RNA 1: B1 RNA 1
RNA 2: B1 RNA 2 with G27C, G28U, G29U, U52C, C53A
B17: target 2 MT 5'PFS GAA 3'PFS CAG (mixed)
RNA 1: B1 RNA 1
RNA 2: B1 RNA 2 with G28A, G29A, U52C, C53A
B18: target 2 MT 5'PFS GAA 3'PFS CAC (mixed)
RNA 1: B1 RNA 1
RNA 2: B1 RNA 2 with G28A, G29A, U52C, C53A, G54C
B19: target 2 MT 5'PFS GAA 3'PFS CAU (mixed)
RNA 1: B1 RNA 1
RNA 2: B1 RNA 2 with G28A, G29A, U52C, C53A, G54U
B20: target 2 MT 5'PFS CUU 3'PFS CAA (mixed)
RNA 1: B1 RNA 1
RNA 2: B1 RNA 2 with G27C, G28U, G29U, U52C, C53A, G54A
B21: target 2 MT 5'PFS GGG 3'PFS UCA (mixed)
RNA 1: B1 RNA 1
RNA 2: B1 RNA 2 with G54A
B22: target 2 MT 5'PFS UCA 3'PFS CUU (mixed)
RNA 1: B1 RNA 1
RNA 2: B1 RNA 2 with G27U, G28C, G29A, U52C, C53U, G54U
B23: target 2 MT 5'PFS GAA 3'PFS CAA (mixed)
RNA 1: B1 RNA 1
RNA 2: B1 RNA 2 with G28A, G29A, U52C, C53A, G54A
B24: target 2 MT 5'PFS AAU 3'PFS ACA (mixed)
RNA 1: B1 RNA 1
RNA 2: B1 RNA 2 with G27A, G28A, G29U, U52A, G54A
B25: target 2 MT 5'PFS UUC 3'PFS CAC (mixed)
RNA 1: B1 RNA 1
RNA 2: B1 RNA 2 with G27U, G28U, G29C, U52C, C53A, G54C
B26: target 2 MT 5'PFS CAU 3'PFS AUU (mixed)
RNA 1: B1 RNA 1
RNA 2: B1 RNA 2 with G27C, G28A, G29U, U52A, C53U, G54U
B27: target 2 MT 5'PFS CUU 3'PFS CAC (mixed)
RNA 1: B1 RNA 1
RNA 2: B1 RNA 2 with G27C, G28U, G29U, U52C, C53A, G54C
B28: target 2 MT 5'PFS AUU 3'PFS UCA (mixed)
RNA 1: B1 RNA 1
RNA 2: B1 RNA 2 with G27A, G28U, G29U, G54A
B29: target 2 MT 5'PFS UUC 3'PFS CAG (mixed)
RNA 1: B1 RNA 1
RNA 2: B1 RNA 2 with G27U, G28U, G29C, U52C, C53A
B30: target 2 MT 5'PFS UGC 3'PFS AGG (mixed)
RNA 1: B1 RNA 1
RNA 2: B1 RNA 2 with G27U, G29C, U52A, C53G
B31: target 2 MT 5'PFS GCG 3'PFS CGA (mixed)
RNA 1: B1 RNA 1
RNA 2: B1 RNA 2 with G28C, U52C, C53G, G54A
B32: target 2 MT 5'PFS CAG 3'PFS ACG (mixed)
RNA 1: B1 RNA 1
RNA 2: B1 RNA 2 with G27C, G28A, U52A
B33: target 2 MT 5'PFS UGC 3'PFS AGC (mixed)
RNA 1: B1 RNA 1
RNA 2: B1 RNA 2 with G27U, G29C, U52A, C53G, G54C
B34: target 2 MT 5'PFS GCG 3'PFS CGU (mixed)
RNA 1: B1 RNA 1
RNA 2: B1 RNA 2 with G28C, U52C, C53G, G54U
B35: target 2 MT 5'PFS GGG 3'PFS UCC (mixed)
RNA 1: B1 RNA 1
RNA 2: B1 RNA 2 with G54C
B36: target 1 A1G,C6G (mixed)
RNA 1: CACCCGUGCAAAAAUGCAGGGGUCUAAAACUGAGCGGAUAACCUCUCUAUGG
RNA 2: GGGAAUGGAUCCACAUCUACGAAUUCGUACCAUAGAGAGGUUAUCGGCUCGCCGAGAUCGGAAGAGCACACGU
B37: target 1 insG 3' of 10,insC 3' of 8 (mixed)
RNA 1: B36 RNA 1
RNA 2: GGGAAUGGAUCCACAUCUACGAAUUCGUACCAUAGAGAGGUUGAUCCCGCUCACCGAGAUCGGAAGAGCACACGU
B38: target 1 U10C,G12C (mixed)
RNA 1: B36 RNA 1
RNA 2: B36 RNA 2 with G40C, U42C, G46C, G51A

Each binder was assayed against T1, EsCas13d, nuclease-dead (assay: crRNA (strand 1, pre-loaded); Mg2+; 40 mM Tris-HCl pH 7.5, 150 mM NaCl, 6 mM MgCl2, 1 mM DTT, 0.1% Tween-20, 0.2 mg/ml BSA; 25 C; 10 min per concentration, then washed). Conditions: tags: His6-TwinStrep-SUMO cleaved; N-terminal SNAP kept (SNAP-Surface 488); label: 3' end held by stalled T7 RNA polymerase.

Row | Binder | Kd [nM]
1 | B1 | 11.5 ± 0.8
2 | B2 | 7 ± 1
3 | B3 | 27 ± 10
4 | B4 | 30 ± 6
5 | B5 | 2.23 ± 0.19
6 | B6 | 3.31 ± 0.27
7 | B7 | 4 ± 0.7
8 | B8 | 26 ± 9
9 | B9 | 6.4 ± 0.8
10 | B10 | 4.1 ± 0.6
11 | B11 | 7.1 ± 2
12 | B12 | 14.3 ± 3.2
13 | B13 | 5.3 ± 2.1
14 | B14 | 9.4 ± 2.2
15 | B15 | 3.3 ± 0.5
16 | B16 | 3.75 ± 0.3
17 | B17 | 6.6 ± 0.6
18 | B18 | 7 ± 1.5
19 | B19 | 8.6 ± 1.7

Row | Binder | Kd [nM]
20 | B20 | 2.9 ± 0.4
21 | B21 | 11.3 ± 1.5
22 | B22 | 5 ± 0.9
23 | B23 | 4.9 ± 0.7
24 | B24 | 7.5 ± 1.3
25 | B25 | 13 ± 4
26 | B26 | 4.1 ± 0.6
27 | B27 | 3.41 ± 0.28
28 | B28 | 7 ± 0.8
29 | B29 | 6.5 ± 1.4
30 | B30 | ~60
31 | B31 | 30 ± 12
32 | B32 | 5.8 ± 2.8
33 | B33 | 19.7 ± 1.9
34 | B34 | 14.4 ± 3
35 | B35 | 52 ± 14
36 | B36 | 7.3 ± 0.4
37 | B37 | 27.8 ± 1.9
38 | B38 | 71 ± 27
